Measured values: patent publication EP4610277A1 (Daiichi Sankyo Company, Limited, dated 2025)

Columns and labels:
[1] = target: T1, recombinant KIR3DL1 (extracellular domain-Fc-Avi, in-house) (human); assay: flow cytometry, KIR-Fc 0.1 µM on scFv-K562 cells
T1 construct: IL-2 signal peptide left out; also called soluble KIR3DL1

[2] = target: T2, recombinant human KIR3DS1/CD158e2 Fc chimera protein (4136-KR-050, R&D Systems) (human, UniProt Q14943 22-340, limits assumed); assay: flow cytometry, KIR-Fc on scFv-K562 cells
T2 construct: Bought Fc chimera; also called soluble KIR3DS1; recombinant KIR3DS1
T2 sequence (Q14943 22-340 limits assumed, change not shown): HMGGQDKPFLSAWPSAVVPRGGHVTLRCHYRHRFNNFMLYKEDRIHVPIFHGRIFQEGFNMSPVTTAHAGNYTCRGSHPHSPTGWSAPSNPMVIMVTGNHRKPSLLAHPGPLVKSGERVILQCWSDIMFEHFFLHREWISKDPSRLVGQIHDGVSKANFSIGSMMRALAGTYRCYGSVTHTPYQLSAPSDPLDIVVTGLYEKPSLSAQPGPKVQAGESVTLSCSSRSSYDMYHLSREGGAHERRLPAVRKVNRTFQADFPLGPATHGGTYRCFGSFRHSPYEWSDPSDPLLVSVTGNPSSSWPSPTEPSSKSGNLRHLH

T1 sequence (chain, as listed by the source): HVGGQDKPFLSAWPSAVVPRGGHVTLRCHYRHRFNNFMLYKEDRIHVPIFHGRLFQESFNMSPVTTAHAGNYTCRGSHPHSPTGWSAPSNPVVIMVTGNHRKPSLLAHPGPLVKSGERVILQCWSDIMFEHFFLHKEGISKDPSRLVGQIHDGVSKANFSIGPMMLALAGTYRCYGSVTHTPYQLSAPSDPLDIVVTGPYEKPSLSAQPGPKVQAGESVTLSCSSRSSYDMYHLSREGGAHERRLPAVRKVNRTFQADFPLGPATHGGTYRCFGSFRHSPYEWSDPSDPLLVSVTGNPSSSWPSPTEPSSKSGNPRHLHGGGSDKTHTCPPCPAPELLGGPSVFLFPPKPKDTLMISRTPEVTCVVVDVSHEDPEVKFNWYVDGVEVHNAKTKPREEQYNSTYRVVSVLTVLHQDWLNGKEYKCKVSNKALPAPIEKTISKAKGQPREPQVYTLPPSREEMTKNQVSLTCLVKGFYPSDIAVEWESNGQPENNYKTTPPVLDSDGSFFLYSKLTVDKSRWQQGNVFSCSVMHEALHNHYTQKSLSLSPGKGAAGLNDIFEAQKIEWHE

- binding result [1]: binds
- binding result [2]: no binding (tested: 0.1 µM)
B1: membrane-type a3DL1-DS6 scFv (scFv)
scFv: DYKDDDDKGSGQMQLVQSGAEVKKPGESLKISCKGSGYSFTSYWIGWVRQMPGKGPEWMGIIYPGDSYTNYSPSFQGHVTISADKSISTAYLQWSSLKASDTAMYYCARLAPTVEDAFDIWGQGTLVTVSSGGGGSGGGGSGGGGSQSVLTQPPSVSEAPGQRVTISCTGSSSNIGAGYDVHWYQQLPGTAPKLLIYGNSNRPSGVPDRFSGSKSGTSASLAITGLQAEDEADYYCQSYDSSLSEEVFGTGTKVTVLALSNSIMYFSHFVPVFLPAKPTTTPAPRPPTPAPTIASQPLSLRPEACRPAAGGAVHTRGLDFACDIYIWAPLAGTCGVLLLSLVITLYCNH
notes: On K562 cells
